Data set [1] in a line: SE-HPLC, chemical stability on storage. Type of data set: physicochemical. The protocol:
A chemical stability study monitored the molecular integrity of the ADC products that could be impacted following 3 months storage at +40° C. (thermal stress accelerated degradation storage conditions). Samples stored at +40° C. were compared to samples stored at +5° C., as assessed by SE-HPLC, performed with the Acquity UPLC from WATERS® with a BEH200 SEC 1.7 μm column.

The nature of data set [2]: SE-HPLC, physical stability after freeze/thaw and shaking. Format: physicochemical. As to conditions: physical stability study.
Method: Physical stability was measured after a Freeze/Thaw (F/T) cycle in which ADC products are frozen at least 2 hours at −20° C. and thawed at least 1 hour at room temperature three times and tested 24 h after the last Freeze/Thaw cycle, and after shaking in which ADC products samples are shaken with a “vortex” 3 min at 3000 rpm and tested 24 h after this shaking stress application. […] Measurements were also made by SE-HPLC, performed with the Acquity UPLC from WATERS® with a BEH200 SEC 1.7 μm column. SE-HPLC is used to evaluate soluble and covalent/non-covalent aggregates levels and the proteic fragments that could be generated.

For ADCETRIS ®, the “fragments, in words” value in data set [1] (chemical stability at 5° C.) and in data set [2] was “significant levels of fragments” in each case. In data set [1] (storage at 5° C., T1 W (1 week)), the Fragments % amounted to 1.77%.

These data come from patent US9427478B2, “Enzymatic conjugation of polypeptides” (Innate Pharma, priority 2013, dated 2016).
